This is an account of results in the nanobody polyreactivity screen of Harvey et al. (2022).

A short description of this data set: yeast display, Sf9 membrane polyspecificity reagent, FACS + sequencing; frameworks hold sequencing errors. In a few lines: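 A nanobody's polyreactivity label depends on the gate it was sorted from. Yeast display cells were stained with 10% biotinylated, detergent-solubilized Sf9 membrane reagent for 1 hour at 4 °C, enriched on streptavidin microbeads and sorted by FACS. The low and high (top ~1%) gates were set on anti-HA fluorescence for expression and streptavidin fluorescence for reagent binding.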
Consider “QVQLVESGGGLVQAGGSLRLSCAASGSTFRTYAMGWYRQAPGKVRELVAAITNGGSTYADSVKGRFTISRDNAKNTVYLQMNSLKPEDTAVYYCNADFGFGYVSLLYEYWGQGTQVTVSS”, for which the “polyreactivity (PSR sort gate)” value is on record as “low polyreactivity”.

Consider “QFQLLESGGGLVHAGGSLLLSCAASGSTFVRYAMGWYRQAPAKERELVASISSSGSTYYADSVKGRFTISRDNAKNSDYLQMNSLKPEDTSVYYCAIQYGGRYGYWGQGTQVTVSS”, for which the “polyreactivity (PSR sort gate)” value is “low polyreactivity”.

Turning to “QVQLVESGGGLVQAGGSLRLSCAASGYTSVGNAMGWYRPAPWKERELVAAITYNGGNTYYADSVKGRFRISRDNAKNTVYLQMNSLKPEDTAVSYCATDSQELASSRFDYWGQGTQVTVSS”, the “polyreactivity (PSR sort gate)” value is reported as “low polyreactivity”.

As to “QVQLVESGGGLVQAGGSLRLSCAASGSIFAVYAMGWSRQAPGKERELVAAITTSGGSTYYADSVKGRFTISRDNAKNTVYLQMNSLKPEDTAVYYCAAYRGTLLTAYDYWGQGTQVTVSS”, the “polyreactivity (PSR sort gate)” value is “low polyreactivity”.

“QVQLVESGGGLVQAGGSLRLSCAASGRTFRYYTMGWYRQAPGKEREFVAAISSTGGTYYADSVKGRFTISRDNAKNTVYLQMNSLKPEDTAVYYCAAETEDWNEYNYWGQGTQVTVSS”: the “polyreactivity (PSR sort gate)” value is listed as “low polyreactivity”.

In the case of “QVQLVESGGGLVQAGGSLRLSCAASGFIIVRYAMGWYRQAPGKERELVASITKSGGSTYYADSVKGRFTISRDNAKNTVYLQMNSLKPEDTAVYYCAATVVSRTRYYYRGQRYDYWGQGTQVTVSS”, the “polyreactivity (PSR sort gate)” value is reported as “high polyreactivity”.

Take “QVQLVESGGGLVQAGGSLRLSCAASGITFQYYAMGWYRQAPGKERELGAAITSSGVSTYYADSVKGRFTISRDNAKNTVYLQMNSLKPEDTAVYYCNTVVRGWSSSAYVYWGQGTQVTVSS”: the “polyreactivity (PSR sort gate)” value is “low polyreactivity”.

As for “QVQLVESGGGLVQAGGSLRLSCAASGLIFTYYAMGWYRPAPGKERELVASINYSGGSTYYADSVKGRFTISRDNAKNSVYLHMNSLKPEDTAVYYCAARRVTQTEGPMGYWGQGTQVTVSS”, the “polyreactivity (PSR sort gate)” value is listed as “low polyreactivity”.

With “QVQLVESGGGLVQAGGSLRLSCAASGRIFRYYAMGWYRQAPGKERELVATISRSGGSTFYADSVKGRFTISRDNGKNPVYLQMNSLKPEDSAVYYCNARYQTGCYGYWGQGTQVTVSS”, the “polyreactivity (PSR sort gate)” value is “high polyreactivity”.

With “QVQIVESGGGLVQAGGSLRLSCAASGSISVPYGMGWYRQAPGKERELVAAISGGSTNYADSVKGRFTISRDNAKNTVYLQMNSLKPEDTAVYFCAADWWAWYTRYDYWGQGSQVTVSS”, the “polyreactivity (PSR sort gate)” value is on record as “low polyreactivity”.

With “QVQLVESGGGLVQAGGSLRLSCAASGSTFGDNAMGWYRQAPGKERELVAVITSDTSTYYADSVKGRFTISRDNAKNTVYLQMNSLKPEDTAVYYCAADWGGLWFWYEYWGQGTQVTVSS”, the “polyreactivity (PSR sort gate)” value was “low polyreactivity”.

Turning to “QVQLVESGGGLVQAGGSHRLSCSASGQTFVKNAMGWYRQAPGKERELVAAITVSGSRTYYADSVKGRFTISRDNAKNTVYLQMNSLKPEDTAVYYCAAKTADRFAPYYYWGQGTQVTVSS”, the “polyreactivity (PSR sort gate)” value is “high polyreactivity”.

As to “QVQLVESGGGLVQAGGSLRLICAASGRNFNHYAMGWYRQAPGKERELVAGITISCGSTYYADSVKGRFTISRDNSKNTVSLQINSLKPEVTAVYYCNAVYDYYRQSKWSMDYWGQGTQVTVSS”, the “polyreactivity (PSR sort gate)” value was “low polyreactivity”.

In the case of “QVQLVESGGGLVQAGGSLRLSCAASGIIFYPYAMGWYRQAPGKERELVADITSGGGTNYADSVKGRFTISRDNAKNTVYLHMNSLKREDTAVYYWAAEVRGYHWGTYYEFYYWGQGTQVTVSS”, the “polyreactivity (PSR sort gate)” value was “low polyreactivity”.

For “QVQLEESGGGLVQAGGSLRLSSAASGRIFRAYAMGRYRQAPGKERELVAAITSGGGSTYYADSVKGRFTISRHNAKNTVYLQMNSLKPEDTAVYYSAAKSSRIAYSSWFYYATFDYWGQGTQVTVSS”, the “polyreactivity (PSR sort gate)” value is recorded as “high polyreactivity”.

For “QVQLVESGGGLVQAGGSLRLSCAASGSIFAYNAMGWYIQSPGTERELVAAISSSGGSTTYADSVKGRFTISRDNAKYTVYLQMNSLKPEDTAVYYCNAAWRRSRYYYWGQGTQVTVSS”, the “polyreactivity (PSR sort gate)” value is reported as “high polyreactivity”.

For “QVQLVESGGGLVQEGGSLRLSCAASGSIFRFYVMGWYRQAPGKERELVAAISIGGSTNYADSVKGRFTISRDNAKNTVYLQMNSRKPEDTAVYYCAADDWYGAGLPHGTEFDYWGQGTQVTVSS”, the “polyreactivity (PSR sort gate)” value is “low polyreactivity”.

In the case of “QVQLVESGGGLVQAGGSLRLSCAASGRILYIYAMGWYRQAPGKERELVAAIRSSGGSTYYADSVKGRFTISRDNAKNSVYLQMNSLKPDDTAVYYCAATSRVSKSHLYGYWGQGTQVTVSS”, the “polyreactivity (PSR sort gate)” value is on record as “high polyreactivity”.

With “QVQLVESGGGLVQAGGSLRLSCAASGSIFSYYAMGWYRQAPGKEREFVAAITKSGGSTYYADSVKGRFTISRDNAKNTVYLQMNSLKPEDTAVYYCAVRYKLYYYGYDYWGQGTQVTVSS”, the “polyreactivity (PSR sort gate)” value is reported as “low polyreactivity”.

Consider “QVQLVESRRGLVQAGGSLRLSCAASGSIFSGYVMGRYRKAPGKETELVAAITWSGGRTYYADSVKGRFTISRDYAKNTVYLQMNSLKPEDTAVYYCAKRNIKSSGYYYWGQGTQVTVSS”, for which the “polyreactivity (PSR sort gate)” value was “high polyreactivity”.

With “QVQLVQSGGGLVQAGGSLRLSCAASGSTFSGYTMGWYRQAPGKEREFVAAISSRGGSTYYADSVKGRFTISRDNAKNTVYLQMNSLKPEDTAVYYCAAKVWARVDGRQFRMEYWGQGTQVTVSS”, the “polyreactivity (PSR sort gate)” value is on record as “high polyreactivity”.

With “QVQLVESGGGLVQAGGSLRLSCAASGRTFGEYAMGWYRQAPGKERELVAAISSAGSTYYADSVKGRFTISRDNAKNTVYLQMNSLKPEDTAVYYCAASRKYGYGYWGQGTQVTVSS”, the “polyreactivity (PSR sort gate)” value is “high polyreactivity”.

As to “QVQLVESGGGLVQAGGSLRLSCAASGSMIAFYVMGLYRQAPGKERELVAAINRGGTNTYYADSVKGRFTISRDNAKNTVYLQMNSLKPEDTAVYYCAADGDRSAQRYTGYYYWGQGTQVTVSS”, the “polyreactivity (PSR sort gate)” value is “high polyreactivity”.

For “QVQLVESGGGLVQAGGSLRLSCAASGRIFRFYAMGWYRQAPGKERVLVAAITRNVGSTFYADSVKGRFTISRDNAKNTVYLQMNSLKPEDSAVFYCAAESDYYYRYTFDYWGQGTQVTVSS”, the “polyreactivity (PSR sort gate)” value was “low polyreactivity”.

Take “QVQLVESGGGLVQAGGSLRLSCAASGIIFYGYAMGWYRQAPGKERELVAAIDSGVSTNYADSVKGRFTISRDNAKNTVYLQMNSLKPEDTAVYYCAVQPWTRDNGYDYWGQGTQVTVSS”: the “polyreactivity (PSR sort gate)” value is listed as “low polyreactivity”.

As for “QVQQQESGGGLVQAGGSLRLSCAASGTIFQLTVMGRYRQAPGKERQLVASIDYGGNTNYADSVKGRFTISRDNAKNTVYLQMNSLKPEDTAVYYCAASSDSWTTHPYWGQGTQVTVSS”, the “polyreactivity (PSR sort gate)” value is reported as “low polyreactivity”.

Turning to “QVQLVESGGGLVQAGGSLRLSCAASGRILYVNTMGWYRQAPGKERELVAGITSRVGSTYYADSVKGRFTISRDNGKNTVYLQMKSLKPEYTAVYYCNARSTWRHRRDQVDFDYWGQGTQVTVSS”, the “polyreactivity (PSR sort gate)” value was “low polyreactivity”.

As for “QVQLVDSGGGLVKAGGSLRLSCAASGSTFAYYAMGWYRQAPGKERELVAAISWNGGSTYYADSVKGRFTISRDNAKNTVYLQMNSLKPEDTAVYYCAAEVYDYTYVVTFLYDYWGQGTQVTVSS”, the “polyreactivity (PSR sort gate)” value is “high polyreactivity”.

With “QVQLVESGGGLVQAGGSLRLSCAASGSIFWYYTMGWYRQAPGKERELVATITRSGSRTYYADSVKGRFTISRDNAKNTVYLQMNSLNPEDTAVYYCAKDFGRWTYDYWGQATQVTVSS”, the “polyreactivity (PSR sort gate)” value was “low polyreactivity”.

With “QVQLVESGGGLVQAGGSLRLSCAASGSTFVLYAMGWYRQAPGKERELVAAITWTGGTTNYADSVKGRFTISLDNAKNTDYLQMNILQPEDTAVSYCAAKTNGRYDYWGQGTQVTVSS”, the “polyreactivity (PSR sort gate)” value is given as “low polyreactivity”.

Regarding “QVQHVESGGGLVQAGGSLRLSCAASGGTFGSNTMGWYRQARGKERELVAAITSGVSTYYADSVKGRFTISRDNAKNTVYLQMNSLKPEDTAVFYCAADTTQVQGVEGDYWGQGTQVTVSS”, the “polyreactivity (PSR sort gate)” value is listed as “low polyreactivity”.

“QVQLVESGGGLVQAGGSLRLSCAASGRTFRQYAMGWYRQAPGKERELVATISGGGGNTYYADSVKGRFTISRDNAKNTVYLQMNSLKPEDTAVYYCAARRRDRPVRGYDYWGQGTQVTVSS”: the “polyreactivity (PSR sort gate)” value is “high polyreactivity”.

In the case of “QVQLVESGGGLVQAGGSLRLSCAASGFILRYYAMGWYRPAPGNERELVAAISSGGGTYYADSVKGRFTISRDNAKNTVYLQMNSLKPEDTAVYYCNKASTSYYRFNYWGQGTQVTVSS”, the “polyreactivity (PSR sort gate)” value is given as “high polyreactivity”.

Turning to “QVQLVESAGGLVQAGGSLRLICAASGSIFVKYAMGWYRQATGKERELVAAISRSGGSTYYADSVKGRFTISRDNAKNTVYLQMTSLKPEDTAVYYCAADGFRGDMYYWGQGTQVTVSS”, the “polyreactivity (PSR sort gate)” value was “low polyreactivity”.

For the sequence “QVQLVESGGGLVQAGRSLRLRCPASGLTINSYAMGWYRQAPGKERELVAAIDWSGGRTYYADSVKGRFTISRDNAKNTVYLQMNSLKPEDTAVYYCAAYSRNRALRFNYWGQGTQVTVSS”, the “polyreactivity (PSR sort gate)” value is on record as “high polyreactivity”.

Take “QVQLVESGGGLVQAGGSLRLSCAASGSTFGIYSMGWYRQAPGKERELVAAISVRGGRTYYADSVKGRFTISRDNAKNTVYLQMNSLKPEDTAVYYCAPTWYWGNDYWGQGTQVTVSS”: the “polyreactivity (PSR sort gate)” value is “low polyreactivity”.

As for “QVQLVESGGGLVQAGGSLRLSCAASGSIFRYYAMGWYRQAPGKERELVASINSGGSTYYADSVKGRFTISRDNAKNTVYLLMNSLKPEDTAVYYCAAETSYYYRGYWKSYDYWGQGTQVTVSS”, the “polyreactivity (PSR sort gate)” value is listed as “high polyreactivity”.

Take “QVQLVESGGGLVQAGRSLRLICAASGSIFDWYAMGWYRQAPGKEGELVAAISSGDSTYYADSVKGRFTISRDNAKNTVYLQMNSLKPEDTAVYYCAAVTKLSGIRYHYWGQGTQVTVSS”: the “polyreactivity (PSR sort gate)” value is “low polyreactivity”.

Take “QFQLVESLGGLDQAGGSLRLSFAASGLIILAYAMVWYRQAPGKERELVAAISRNRGSTYYADSVKGRLTISRDNAKNTVYLQMNSLKPEVTEVYYCNNVSRSSVYLDYYYWGQGTQVTVSS”: the “polyreactivity (PSR sort gate)” value was “high polyreactivity”.

As to “QVQLVESGGGLVQAGGSLRLSCAASGSIFPANAMGWYRQAPGKERELVAAISRRGGNTNYADSVKGRFTISRDNAKNTVYLQMNSLKPEDTAVYYCAAYYYYRRYDYWGQGTQVTVSS”, the “polyreactivity (PSR sort gate)” value is “high polyreactivity”.

For the sequence “QVQLVESGGGVVQAGGSLRLSCAASGNIFFGNAMGWYRQAPGKERELVAAITKRGGSTYYADSVKGRFTISRDNAKNTVYLQMNSLKPEDTAVYYCAAVSYSKRTWSMNYWGQGTQVTVSS”, the “polyreactivity (PSR sort gate)” value was “high polyreactivity”.
